These results are taken from paper PMC2677886 (Nucleic Acids Research, 2009).

The target in this assay is RECQ5–CBD fusion protein (human, UniProt O94762 1-991). The experiment in a line: pull-down.
RECQ5–CBD fusion protein, sequence (O94762 whole entry, the tested form may be a part): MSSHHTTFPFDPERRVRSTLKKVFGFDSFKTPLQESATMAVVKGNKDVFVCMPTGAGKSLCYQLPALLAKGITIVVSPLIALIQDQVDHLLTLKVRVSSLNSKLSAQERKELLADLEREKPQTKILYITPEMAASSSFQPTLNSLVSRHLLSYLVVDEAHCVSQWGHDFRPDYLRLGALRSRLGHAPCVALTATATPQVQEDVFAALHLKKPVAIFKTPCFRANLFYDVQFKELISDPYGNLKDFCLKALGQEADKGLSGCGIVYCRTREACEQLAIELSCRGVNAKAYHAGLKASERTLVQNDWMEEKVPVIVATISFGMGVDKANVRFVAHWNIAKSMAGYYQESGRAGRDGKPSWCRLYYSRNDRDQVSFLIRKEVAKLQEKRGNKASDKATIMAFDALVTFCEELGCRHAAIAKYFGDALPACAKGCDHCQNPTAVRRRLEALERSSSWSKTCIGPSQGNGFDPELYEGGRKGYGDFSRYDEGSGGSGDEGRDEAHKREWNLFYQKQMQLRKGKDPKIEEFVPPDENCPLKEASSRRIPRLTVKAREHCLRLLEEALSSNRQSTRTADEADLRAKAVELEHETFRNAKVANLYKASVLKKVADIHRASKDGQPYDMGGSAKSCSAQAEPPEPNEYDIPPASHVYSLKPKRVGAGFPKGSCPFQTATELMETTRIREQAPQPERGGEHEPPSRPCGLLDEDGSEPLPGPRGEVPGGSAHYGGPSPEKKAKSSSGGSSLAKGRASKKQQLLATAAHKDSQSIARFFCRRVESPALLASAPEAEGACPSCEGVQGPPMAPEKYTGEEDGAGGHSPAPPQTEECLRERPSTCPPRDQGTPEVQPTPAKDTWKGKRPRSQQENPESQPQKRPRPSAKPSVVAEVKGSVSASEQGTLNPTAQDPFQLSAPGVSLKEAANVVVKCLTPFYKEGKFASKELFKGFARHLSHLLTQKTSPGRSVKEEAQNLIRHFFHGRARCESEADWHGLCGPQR

B1: (His)6-NBS1, individually purified (natural protein, human, UniProt O60934 1-754, looked up)
chain: MWKLLPAAGPAGGEPYRLLTGVEYVVGRKNCAILIENDQSISRNHAVLTANFSVTNLSQTDEIPVLTLKDNSKYGTFVNEEKMQNGFSRTLKSGDGITFGVFGSKFRIEYEPLVACSSCLDVSGKTALNQAILQLGGFTVNNWTEECTHLVMVSVKVTIKTICALICGRPIVKPEYFTEFLKAVESKKQPPQIESFYPPLDEPSIGSKNVDLSGRQERKQIFKGKTFIFLNAKQHKKLSSAVVFGGGEARLITEENEEEHNFFLAPGTCVVDTGITNSQTLIPDCQKKWIQSIMDMLQRQGLRPIPEAEIGLAVIFMTTKNYCDPQGHPSTGLKTTTPGPSLSQGVSVDEKLMPSAPVNTTTYVADTESEQADTWDLSERPKEIKVSKMEQKFRMLSQDAPTVKESCKTSSNNNSMVSNTLAKMRIPNYQLSPTKLPSINKSKDRASQQQQTNSIRNYFQPSTKKRERDEENQEMSSCKSARIETSCSLLEQTQPATPSLWKNKEQHLSENEPVDTNSDNNLFTDTDLKSIVKNSASKSHAAEKLRSNKKREMDDVAIEDEVLEQLFKDTKPELEIDVKVQKQEEDVNVRKRPRMDIETNDTFSDEAVPESSKISQENEIGKKRELKEDSLWSAKEISNNDKLQDDSEMLPKKLLLTEFRSLVIKNSTSRNPSGINDDYGQLKNFKKFKKVTYPGAGKLPHIIGGSDLIAHHARKNTELEEWLRQEMEVQNQHAKEESLADDLFRYNPYLKRRR
With B1, the binding result was “binds”.

B2: (His)6-MRE11, individually purified (natural protein, human, UniProt P49959 1-708, looked up)
chain: MSTADALDDENTFKILVATDIHLGFMEKDAVRGNDTFVTLDEILRLAQENEVDFILLGGDLFHENKPSRKTLHTCLELLRKYCMGDRPVQFEILSDQSVNFGFSKFPWVNYQDGNLNISIPVFSIHGNHDDPTGADALCALDILSCAGFVNHFGRSMSVEKIDISPVLLQKGSTKIALYGLGSIPDERLYRMFVNKKVTMLRPKEDENSWFNLFVIHQNRSKHGSTNFIPEQFLDDFIDLVIWGHEHECKIAPTKNEQQLFYISQPGSSVVTSLSPGEAVKKHVGLLRIKGRKMNMHKIPLHTVRQFFMEDIVLANHPDIFNPDNPKVTQAIQSFCLEKIEEMLENAERERLGNSHQPEKPLVRLRVDYSGGFEPFSVLRFSQKFVDRVANPKDIIHFFRHREQKEKTGEEINFGKLITKPSEGTTLRVEDLVKQYFQTAEKNVQLSLLTERGMGEAVQEFVDKEEKDAIEELVKYQLEKTQRFLKERHIDALEDKIDEEVRRFRETRQKNTNEEDDEVREAMTRARALRSQSEESASAFSADDLMSIDLAEQMANDSDDSISAATNKGRGRGRGRRGGRGQNSASRGGSQRGRADTGLETSTRSRNSKTAVSASRNMSIIDAFKSTRQQPSRNVTTKNYSEVIEVDESDVEEDIFPTTSKTDQRWSSTSSSKIMSQSQVSKGVDFESSEDDDDDPFMNTSSLRRNRR
Regarding B2, the binding result is reported as “binds”.
